Experimental data as given in patent publication US20100322948A1, “Bone morphogenetic protein (BMP)-binding domains of proteins of the repulsive guidance molecule (RGM) protein family and functional fragments thereof, and use of same” (ABBOTT GMBH & CO. KG, priority 2007, published 2010).
Each block holds one molecule with its values, some of them ahead of it. Ends that are not written are not given here.

Legend:
BMP-4 = biological target: T1, BMP-4 (Homo sapiens, UniProt P12644); assay: In vitro interaction test, variant A: immobilized BMP-4, detection of binding of RGMA-Fc fusion proteins; conditions: Working Example 3, FIG. 5; detection anti-human-Fc or anti-Myc
T1 construct: purchased R&D Systems 314-BM
T1 sequence (P12644 293-408): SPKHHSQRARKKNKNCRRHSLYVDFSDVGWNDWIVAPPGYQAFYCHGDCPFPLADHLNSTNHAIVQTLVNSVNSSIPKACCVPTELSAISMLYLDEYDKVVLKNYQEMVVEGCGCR
Procedure: Test Method 4: In Vitro Interaction Test for Determining the Interaction between RGMA and BMP-2 and -4
The interaction tests were carried out as described below:
Variant A: Immobilization of the BMP-2/ or -4 Protein and Detection of the Binding of Various RGMA-Fc Fusion Proteins
1. Plate: • Immunoplate Cert. MaxiSorp F96 (Nunc, 439454)
Recombinant human BMP-2, Catalog No.: 355-BM, Company: R&D Systems; Recombinant human RGM A, R&D Systems; Prod. #2495-RM, or
Recombinant human BMP-4, Catalog No.: 314-BM, Company: R&D Systems; • Concentration: 10 μg/mL • Volume used: 2.5 μg/mL in Na2CO3; addition: 50 μL per well • 1 hour at 37° C. in damp chamber
3. Washing step: • Wash 3× with PBS/[…] Tween 20
4. Blocking: • 3% BSA in PBS/0.02% Tween, 1 hour at 37° C. in damp chamber; addition: 200 μL per well
RGMA-Fc fragments, • 1 μg/mL initial concentration, then dilution down to 1:2 using PBS/0.02% Tween20 • […] • 1 hour at 37° C. in damp chamber
6. Washing step: • Wash 3× with PBS/0.02% Tween 20
Biotin anti-human Fc (R&D-Systems), Catalog No.: 709065; 1 mg/mL; • 1:200 in 0.6% BAS/PBS-T (0.02% Tween) • Addition: 50 μL per well • 1 hour at 37° C. in damp chamber
8. Secondary antibody: Strep. POD (Roche); Catalog No.: 11089153001 • 500 U; 1:5000 in 0.6% BAS/PBS-T (0.02% Tween) • Addition: 50 μL per well • 1 hour at 37° C. in damp chamber
9. Washing step: • Wash 3× with PBS/0.02% Tween 20
ImmunoPure TMB substrate kit; Pierce, #34021 • Development period: approximately 1-30 minutes • 1:1 mixture of […]; addition: 50 μL per well
11. Stop: • 2.5 M H2SO4; addition: 50 μL per well
The test was conducted according to test method 4, variant A above, with immobilization of BMP-4 (1 mg/mL). The binding of the fusion proteins was detected using anti-human-Fc or anti-Myc anti-rabbit (Invitrogen) antibodies.
The test was conducted according to test method 4, variant A above, with immobilization of BMP-4 (1 mg/mL). The binding of the fusion proteins was detected using anti-human-antibodies.

[1] = tested on: BMP signalling (rhBMP-2-induced luciferase activity); assay: BRE-Luc assay on BMP signalling in BMP-responsive C3H10-B12 cells; assay type: cell-based; conditions: combined with rhBMP-2 at 50 ng/ml, 24 h
Procedure: Evaluation of the Agonistic or Antagonistic Effect of h RMG A on BMP Signalling using BRE-Luc Assay
a) Materials: • Three compounds were provided at 200 μg/ml.
fragment #788 (IgK/hRGM A 47-422/Xa cleavage site/Fc) • recombinant h BMP-2 (from CHO cells; #355-BM) and monoclonal anti-human BMP2/4 antibodies (#MAB3552) were obtained from R&D Systems Europe, Lille, France • Bright-Glo Luciferase assay kit were purchased from Promega
All experiments were performed in triplicate, and were repeated at two separate times.

Recombinant human BMP-4 = biological target: T2, Recombinant human BMP-4 (human, UniProt P12644 293-408); assay: ELISA, BMP-4 immobilised, fragment titrated, detection with anti-human Fc antibody
T2 construct: Bought protein; also called hBMP-4
T2 sequence (looked up): T1 sequence (P12644 293-408)
From the text: The binding of the fusion proteins was detected using anti-human-antibodies.

NTera-2 cells = assay: Neurite growth test using NTera-2 cells (test method 2); assay type: cell-based, human; conditions: FIG. 7B
From the text: Test Method 2: Illustration of the Effect of RGM Peptides in the Neurite Growth Test, Using NTera-2 Cells
The human pluripotent cancer cell line NTera2 (DSMZ ACC527) is established as a cell culture model. Neurites grow from cell aggregates and form a corona of neurites around the particular aggregate.
NTera-2 cells are human embryonic teratocarcinoma cells. A carcinoma is a cancerous tumor, whereas a teratoma or teratocarcinoma is a mixed tumor of the germ cells composed of various differentiated and undifferentiated tissues, and therefore, the same as for the SH-SY5Y culture, comprises a heterogeneous population. The tumor is usually present in an encapsulated form in the various types, such as hair, skin, teeth, muscle, and nerve tissue. The tumors typically originate in the ovaries, testes, abdominal cavity, or brain. The cell line was cloned from the Tera-2 line, obtained from a metastatic teratocarcinoma in a person.
NTera-2 cells are epithelial, adherently growing cells which form a monolayer. Due to the large number of granular particles which they contain, NTera-2 cells may be easily differentiated from the other cells. The cells were cultivated by 1:5 splitting twice a week. The cells of this mixed culture may be differentiated using retinoic acid in neuronal cells.
Culture Medium Fur Growth […]
In order to differentiate the cells it was necessary to introduce antibiotic into the culture medium of the cell line due to the fact that the cells remained in the same culture flask for three weeks. Previously, the undifferentiated culture had been detrypsinated and the cell count determined using a Neubauer counting chamber. […] 25 μL retinoic acid (10 μM) was readded to the medium under dim light conditions. […]
The culture was stored in an incubator at 37° C. with 5% CO2 gassing, and the medium was changed at the beginning and at the end of the week. […] After three weeks the cells were differentiated and were ready for use in experiments. […]
Different plate formats were used for the tests. For the isolation of protein, 6-well plates were necessary for recovering a sufficient quantity. […]

SH-SY5Y cells = assay: Neurite growth assay using SH-SY5Y cells (test method 1); assay type: cell-based, human; conditions: FIG. 7A
From the text: Test Method 1: Illustration of the Effect of RGM Peptides in the Neurite Growth Assay, Using SH-SY5Y Cells
SH-SY5Y cells are human neuroblastoma cells. Blastomas are embryonic tumors which originate during tissue and organ formation. The origin of the blastoma cells is frequently unknown, since in early embryonic states the differentiation of many cells is still premature; i.e., the blastoma cells are a heterogeneous cell population. The cells of a neuroblastoma, referred to as neuroblasts, originate from the neural crest (structure of the embryonic state) from the autonomous nerve tissue, and are practically arrested in an immature stage. The cells in the present case originated from a clonal subculture of the neuroepitheliomal cell line SK-N-SH which were isolated in 1970 in a bone marrow biopsy of a child with metastases of the neuroblastomas.
Culture Medium for SH-SY5Y Cells (ECACC No. 94030304)
The medium was sterile-filtered using a Nunc 500-mL filter, and was stored in a refrigerator at 4° C. until used. Before use, the medium was heated to 37° C. in a water bath.
SH-SY5Y cells are epithelial, neuron-like cells which slowly adherently grow in a monolayer and never attain a confluence of 100% (maximum 80%). The cell culture was split 1:3 two times per week. Isolation of the cells requires incubation with trypsin for 1-3 minutes in an incubator.
Since this is a population of still immature precursor cells, it is possible to differentiate the cells using retinoic acid, so that a certain percentage of the cells acquire neurite-like extensions. For this purpose the culture was incubated in the medium with 10 μM retinoic acid directly in the culture dish or flask, depending on the test, for 3 days.
Microtiter plates (96-well) (containing collagen I-coated plates) were additionally coated with the hRGM A fragments. After washing two times with PBS the cells were seeded. […] In the quantitative analysis the SH-SY5Y cells grown on hRGM A fragments were compared to SH-SY5Y grown on collagen I alone. The neurite length of the cells was automatically measured and used for the analysis. […]

Molecule: fragment #785: Fc fusion protein of human RGM A amino acids 47-90 (PCKILKCNSEFWSATSGSHAPASDDTPEFCAALRSYALCTRRTA; cysteine pairing not given here; also: Fc fusion protein (dimerising Fc))
binding to immobilized BMP-4 (BMP-4): Significant concentration-dependent binding
effect on BMP-2-induced luciferase activity [1]: did not significantly modify

binding result (Recombinant human BMP-4): binds
B1: 316-386-Fc (#790) (Fc fusion)
chain: LRGCPLNQQIDFQAFHTNAEGTGARRLAAASPAPTAPETFPYETAVAKCKEKLPVEDLYYQACVFDLLTTG
notes: also called fragment #790; not shown: Factor Xa site from the vector; human IgG Fc (hIgG lambda hc 257-Stop)

B2: fragment #790: Fc fusion protein of human RGM A amino acids 316-386 (protein)
chain: B1 chain
modifications: left off: small tags and cut ends; a dimerising Fc or GST
binding to immobilized BMP-4 (BMP-4): Significant concentration-dependent binding
inhibition of neurite growth (NTera-2 cells): inhibit the neurite growth
inhibition of neurite growth (SH-SY5Y cells): inhibit the neurite growth

binding result (Recombinant human BMP-4): binds
B3: 47-90-Fc (#785) (Fc fusion)
chain: PCKILKCNSEFWSATSGSHAPASDDTPEFCAALRSYALCTRRTA
notes: Expressed in HEK293F cells; IgK leader left out; also called fragment 47-90; not shown: Factor Xa site from the vector; human IgG Fc (hIgG lambda hc 257-Stop)
